Source: article PMC2119236

Legend:
[1] = biological target: H-2Db class I H chain, beta2m-free, in R1E-Db cells (mouse); assay: cross-linking
[2] = biological target: H-2Kb class I H chain, beta2m-free, in R1E-Kb cells (mouse); assay: cross-linking
Chain of H-2Kb class I H chain, beta2m-free, in R1E-Kb cells (mouse) (P01901 22-369): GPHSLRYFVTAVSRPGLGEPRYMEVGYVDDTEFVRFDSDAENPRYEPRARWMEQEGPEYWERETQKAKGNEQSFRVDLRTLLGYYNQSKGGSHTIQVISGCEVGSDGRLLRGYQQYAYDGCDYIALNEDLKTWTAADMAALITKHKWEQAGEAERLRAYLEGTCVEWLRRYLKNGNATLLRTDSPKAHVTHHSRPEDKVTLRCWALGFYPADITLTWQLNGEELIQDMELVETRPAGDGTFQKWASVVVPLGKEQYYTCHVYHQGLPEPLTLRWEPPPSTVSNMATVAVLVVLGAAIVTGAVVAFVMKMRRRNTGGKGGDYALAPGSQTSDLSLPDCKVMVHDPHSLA

percent of H chains crosslinked to p88 [1]: 25%
percent of H chains crosslinked to p88 [2]: 50%
B1: p88 (88-kD protein), murine (natural protein)
chain: HDGHDDDAIDIEDDLDDVIEEVEDSKSKSDASTPPSPKVTYKAPVPTGEVYFADSFDRGSLSGWILSKAKKDDTDDEIAKYDGKWEVDEMKETKLPGDKGLVLMSRAKHHAISAKLNKPFLFDTKPLIVQYEVNFQNGIECGGAYVKLLSKTAELSLDQFHDKTPYTIMFGPDKCGEDYKLHFIFRHKNPKTGVYEEKHAKRPDADLKTYFTDKKTHLYTLILNPDNSFEILVDQSVVNSGNLLNDMTPPVNPSREIEDPEDRKPEDWDERPKIADPDAVKPDDWDEDAPSKIPDEEATKPEGWLDDEPEYIPDPDAEKPEDWDEDMDGEWEAPQIANPKCESAPGCGVWQRPMIDNPNYKGKWKPPMIDNPNYQGIWKPRKIPNPDFFEDLEPFKMTPFSAIGLELWSMTSDIFFDNFIISGDRRVVDDWANDGWGLKKAADGAAEPGVVLQMLEAAEERPWLWVVYILTVALPVFLVILFCCSGKKQSNAMEYKKTDAPQPDVKDEEGKEEEKNKRDEEEEEEKLEEKQKSDAEEDGVTGSQDEEDSKPKAEEDEILNRSPRNRKPRRE
